The target of test [1] is human recombinant galectin-9, short isoform (gal-9S) (Homo sapiens, UniProt O00182-3, strain, biotin in the direct ELISA (sites not given); unlabelled in the cell assays). The experiment in a line: cell-based or functional assay.
Test [2] addresses T1, human galectin-7 (Homo sapiens, UniProt P47929, biotin (sites not given)).
T1 construct: human galectin-7, recombinant; also called h-Gal 7; source: recombinant
Description: ELISA; direct ELISA: antibodies coated in a 96-well plate; biotinylated galectins at 1 nM, detected by streptavidin-HRP; for gal-9S also 1h at 37°C with or without lactose 20 mM (S1 Fig). The conditions noted are these: both partners purified.

Test [3] has as its target T2, human galectin-8 (Homo sapiens, UniProt O00214, biotin (sites not given)).
T2 construct: human galectin-8, recombinant; also called h-Gal 8; source: recombinant
Described as above. The settings on record: both partners purified.

Test [4] has as its target T3, human galectin-4 (Homo sapiens, UniProt P56470, biotin (sites not given)).
T3 construct: human galectin-4, recombinant; also called h-Gal 4; source: recombinant
The description is as above. The settings on record: both partners purified.

The target of test [5] is T4, human galectin-2 (Homo sapiens, UniProt P05162, biotin (sites not given)).
T4 construct: human galectin-2, recombinant; also called h-Gal 2; source: recombinant
The test is described as above. The settings on record: both partners purified.

Test [6] concerns the target T5, human galectin-10 (Homo sapiens, UniProt Q05315, biotin (sites not given)).
T5 construct: human galectin-10, recombinant; also called h-Gal 10; source: recombinant
The description is as above. The settings on record: both partners purified.

Test [7] concerns the target T6, human galectin-1 (Homo sapiens, UniProt P09382, biotin (sites not given)).
T6 construct: human galectin-1, recombinant; also called h-Gal 1; source: recombinant
The test is described as above. The conditions noted are these: both partners purified.

In test [8] the target is T7, peptide 13 (Homo sapiens, UniProt O00182).
T7 construct: 15-mer of human gal-9, thirteenth of 15 overlapping peptides spanning aa 202-230 (gal-9L coordinates) with a shift of one aa; limits worked out from peptide 1 = 202-216; they are counted from the set
T7 chain: PPMMYPHPAYPMPFI
Description: ELISA; competition: Gal-Nab1 (0.06 μg/mL) or Gal-Nab2 (0.3 μg/mL) pre-incubated with each 15-mer peptide (0.0001 to 10 μg/mL), then added to plates coated with gal-9; HRP-conjugated anti-mouse antibodies; percent inhibition. The settings on record: both partners purified. A general note: In an ELISA, binding on a coated surface is turned into a signal by an enzyme label.

Test [9] concerns the target T8, peptide 12 (Homo sapiens, UniProt O00182).
T8 construct: 15-mer of human gal-9, twelfth of 15 overlapping peptides spanning aa 202-230 (gal-9L coordinates) with a shift of one aa; limits worked out from peptide 1 = 202-216; they are counted from the set
T8 chain: IPPMMYPHPAYPMPF
Described as above. The settings on record: both partners purified.

Test [10] concerns the target T9, CTB oligopeptide containing the amino-acids 208 to 232 of gal-9L (Homo sapiens, biotin at the C-terminus: K(biotin)-OH).
T9 construct: stuffer aa not related to gal-9, designed to increase solubility and accessibility; stuffer aa not related to gal-9; the last lysine carries the biotin; 32-mer; also called CTB-gal-9 peptide; CTB peptide
The experiment in a line: SPR; Biacore T200; biotinylated CTB or scramble oligopeptide on a streptavidin (SA) chip; Gal-Nab1 and Gal-Nab2 as analytes, 0.05 to 3.2 nM, 40 μL/min, 700 s, PBS with albumin 0.1 mg/mL and tween 0.05%; dissociation 800 s; apparent affinities (avidity). The settings on record: both partners purified. On the set-up: t1/2: unit not given here. On the technique in general: In SPR one partner is held on a chip, and binding of the other changes the refractive index at the surface.

Broadly, the koff is the rate constant with which the complex falls apart. For orientation: kon means a measure of how fast the partners come together.

Sequence of human recombinant galectin-9, short isoform (gal-9S) (O00182 whole entry, looked up, change not shown, canonical isoform): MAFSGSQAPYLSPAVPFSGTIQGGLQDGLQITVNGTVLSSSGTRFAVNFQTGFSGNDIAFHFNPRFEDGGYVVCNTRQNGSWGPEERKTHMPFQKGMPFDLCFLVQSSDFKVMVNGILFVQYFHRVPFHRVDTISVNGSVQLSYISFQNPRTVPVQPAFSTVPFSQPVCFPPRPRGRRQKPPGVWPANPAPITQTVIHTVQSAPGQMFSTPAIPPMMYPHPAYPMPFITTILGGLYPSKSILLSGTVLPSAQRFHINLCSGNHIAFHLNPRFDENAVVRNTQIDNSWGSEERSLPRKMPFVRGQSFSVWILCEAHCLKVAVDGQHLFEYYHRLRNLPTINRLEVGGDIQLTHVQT
T9 sequence (chain, as listed by the source): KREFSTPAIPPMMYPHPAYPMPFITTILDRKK
T6 sequence (P09382 whole entry): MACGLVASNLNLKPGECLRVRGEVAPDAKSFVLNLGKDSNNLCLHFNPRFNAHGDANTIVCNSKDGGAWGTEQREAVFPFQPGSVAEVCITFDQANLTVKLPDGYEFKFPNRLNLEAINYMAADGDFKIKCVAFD
T3 sequence (P56470 whole entry): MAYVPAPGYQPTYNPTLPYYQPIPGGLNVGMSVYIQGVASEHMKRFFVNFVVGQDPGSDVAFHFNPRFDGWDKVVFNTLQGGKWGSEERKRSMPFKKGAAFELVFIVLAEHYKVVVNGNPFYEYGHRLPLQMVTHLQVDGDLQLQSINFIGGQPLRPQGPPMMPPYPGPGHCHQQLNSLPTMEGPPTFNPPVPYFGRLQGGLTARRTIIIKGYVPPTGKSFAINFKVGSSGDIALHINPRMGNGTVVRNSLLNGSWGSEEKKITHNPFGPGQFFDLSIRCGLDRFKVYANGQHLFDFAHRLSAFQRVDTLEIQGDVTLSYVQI
T1 sequence (P47929 whole entry): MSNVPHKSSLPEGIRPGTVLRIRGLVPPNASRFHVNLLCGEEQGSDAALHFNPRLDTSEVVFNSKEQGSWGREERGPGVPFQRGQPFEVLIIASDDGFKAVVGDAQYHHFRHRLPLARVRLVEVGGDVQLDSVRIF
T5 sequence (Q05315 whole entry): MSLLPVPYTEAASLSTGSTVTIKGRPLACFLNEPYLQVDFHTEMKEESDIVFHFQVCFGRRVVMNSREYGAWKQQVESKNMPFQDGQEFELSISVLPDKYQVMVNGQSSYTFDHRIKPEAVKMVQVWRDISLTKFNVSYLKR
T2 sequence (O00214 whole entry): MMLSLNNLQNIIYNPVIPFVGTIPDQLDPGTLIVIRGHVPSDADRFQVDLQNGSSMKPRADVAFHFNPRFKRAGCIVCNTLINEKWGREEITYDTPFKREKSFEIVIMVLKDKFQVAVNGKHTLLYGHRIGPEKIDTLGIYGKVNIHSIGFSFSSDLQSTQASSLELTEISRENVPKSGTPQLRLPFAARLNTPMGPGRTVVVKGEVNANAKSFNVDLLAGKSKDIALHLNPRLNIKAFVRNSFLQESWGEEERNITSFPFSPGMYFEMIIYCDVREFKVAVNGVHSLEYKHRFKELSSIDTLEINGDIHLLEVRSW
T4 sequence (P05162 whole entry): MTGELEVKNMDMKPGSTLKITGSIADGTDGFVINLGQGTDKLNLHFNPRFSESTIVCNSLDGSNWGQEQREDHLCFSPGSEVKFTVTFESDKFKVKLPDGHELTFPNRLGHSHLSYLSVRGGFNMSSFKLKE

B1: Gal-Nab1 (antibody, V domains shown)
VH: KVQLQQSGAELVKPGASVKLSCKASGYTFTDYTIHWVKQRSGQGLEWIGWFYPGSHSIKYNEQFKDRATLTADKSSSTVYMELSRLTSEDSAVYFCTRHGGYDGFDYWGQGTTLTVSS
VL: DIVMSQSPSSLAVSVGEKITMSCKSSQSLFYSTNQKNYLAWYQQKPGQSPKLLIYWASTRESGVPDRFTGSGSGTDFTLTISSVKAEDLAVYYCQQYYYFPYTFGGGTKLEIK
notes: heavy chain CDR1; heavy chain CDR2; heavy chain CDR3; mouse IgG1 heavy chain constant region (isotype IgG1, kappa as stated); light chain CDR1; light chain CDR2; light chain CDR3; mouse kappa light chain constant region (isotype IgG1, kappa as stated); Mouse IgG1, kappa; Raised against the C-terminal part of human gal-9 (residues 191 to 355 of gal-9L); also called anti-gal-9 mAb
Regarding B1, the “EC50 of prevention of gal-9-induced apoptotic death (annexin-V+ PI+) of activated primary CD3+ T cells; gal-9S 40 nM, 36 h, antibody 0.3 to 100 nM” value in test [1] worked out at 10 nM. Also, in test [1], the “EC50 of reduction of gal-9-induced non-lethal PS translocation (annexin-V+ PI-) in activated primary CD3+ T cells; gal-9S 40 nM, 36 h, antibody 0.3 to 100 nM” value worked out at 50 nM. For the same molecule, the binding result in test [2], in test [3], in [4], in test [5], in test [6] and in [7] was “no binding (tested: 1 nM)” in each case. For the same molecule, the binding result in [8] and in test [9] was “binds” each time. For the same molecule, the Kd in [10] was found to be 0.01 nM. Moreover, the koff in test [10] is 2.3e-05 s⁻¹. Further, in test [10], the on-rate constant (kon) is 2.3e+06 M⁻¹ s⁻¹. Moreover, the t1/2 in test [10] stood at 8.37.

B2: Gal-Nab2 (antibody, V domains shown)
VH: KVQLQQSGAELVKPGASVKLSCKASGYTFTEYTIHWVKQRSGQGLEWIGWFYPGSGSMEYNEKFDKATLTADNSSSTVYMELSRLTSEDSAVYFCERHGGYDGFDYWGQGTTLTVSS
VL: DIVMSQSPSSLAVSVGEKVTMSCKSSQSLLYSNNQKNYLAWYQQKPGQSPKLLIYWASTRGSGVPDRFTGSGSGTDFTLTISSVKAEDLAIYYCQQYYSYPFTFGGGTKLEIK
notes: heavy chain CDR1; that of Gal-Nab1 has 17); heavy chain CDR3; mouse IgG1 heavy chain constant region (isotype IgG1, kappa as stated); light chain CDR1; light chain CDR2; light chain CDR3; mouse kappa light chain constant region (isotype IgG1, kappa as stated); Mouse IgG1, kappa; Raised against the C-terminal part of human gal-9 (residues 191 to 355 of gal-9L); also called anti-gal-9 mAb
As for B2, in test [1], the “EC50 of prevention of gal-9-induced apoptotic death (annexin-V+ PI+) of activated primary CD3+ T cells; gal-9S 40 nM, 36 h, antibody 0.3 to 100 nM” value is 25 nM. Further, the binding result in [2], in [3], in test [4], in test [5], in test [6] and in test [7] was “no binding (tested: 1 nM)” throughout. Further, the binding result in test [9] is “binds”.

(Values after publication PMC6133441, “Characterization of neutralizing antibodies reacting with the 213-224 amino-acid segment of human galectin-9” (PLoS ONE, 2018).)
